According to patent publication US20130209454A1:

Tests used:
Test in all cases: cell-based or functional assay
[1] = target: HIV-1 Env of strain TRO.11 (HIV-1)
[2] = target: HIV-1 Env of strain CAP210.2.00.E8 (HIV-1)
[3] = target: HIV-1 Env of strain SC422661.8 (HIV-1)
[4] = target: HIV-1 Env of strain AC10.0.29 (HIV-1)
[5] = target: HIV-1 Env of strain CAP45.2.00.G3 (HIV-1)
[6] = target: HIV-1 strain T255-34 envelope (gp120) (HIV-1)
[7] = target: HIV-1 Env of strain ZM249M.PL1 (HIV-1)
[8] = target: HIV-1 Env of strain T255-34 (HIV-1)
[9] = target: HIV-1 strain Ce0393_C3 envelope (gp120) (HIV-1)
[10] = target: HIV-1 strain QH0692.42 envelope (gp120) (HIV-1)
[11] = target: HIV-1 Env of strain ZM109F.PB4 (HIV-1)
[12] = target: HIV-1 strain 928-28 envelope (gp120) (HIV-1)
[13] = target: HIV-1 Env of strain CNE21 (HIV-1)
[14] = target: HIV-1 Env of strain 62357_14_D3_4589 (HIV-1)
[15] = target: HIV-1 strain AC10.0.29 envelope (gp120) (HIV-1)
[16] = target: HIV-1 strain Du172.17 envelope (gp120) (HIV-1)
[17] = target: HIV-1 strain 703357.C02 envelope (gp120) (HIV-1)
[18] = target: HIV-1 strain 3718.v3.c11 envelope (gp120) (HIV-1)
[19] = target: HIV-1 Env of strain X1254_c3 (HIV-1)
[20] = target: HIV-1 Env of strain Ce0682_E4 (HIV-1)

Binder | neutralization IC50 [1] | neutralization IC50 [2] | neutralization IC50 [3] | neutralization IC50 [4] | neutralization IC50 [5] | neutralization IC80 [6] | neutralization IC50 [7] | neutralization IC50 [8] | neutralization IC80 [9] | neutralization IC80 [10] | neutralization IC50 [11] | neutralization IC80 [12] | neutralization IC50 [13] | neutralization IC50 [14] | neutralization IC80 [15] | neutralization IC80 [16] | neutralization IC80 [17] | neutralization IC80 [18] | neutralization IC50 [19] | neutralization IC50 [20]
NIH45-46^G54Y IgG (antibody, name in Kabat numbering, V domains shown) VH: QVRLSQSGGQMKKPGESMRLSCRASGYEFLNCPINWIRLAPGRRPEWMGWLKPRYGAVNYARKFQGRVTMTRDVYSDTAFLELRSLTSDDTAVYFCTRGKYCTARDYYNWDFEHWGRGAPVTVSS VL: EIVLTQSPATLSLSPGETAIISCRTSQSGSLAWYQQRPGQAPRLVIYSGSTRAAGIPDRFSGSRWGADYNLSISNLESGDFGVYYCQQYEFFGQGTKVQVDI | 0.1 mg/L | > 50 mg/L | 0.06 mg/L | 0.4 mg/L | 45 mg/L | 0.174 mg/L | 0.003 mg/L | 0.04 mg/L | 0.134 mg/L | 1.5 mg/L | 0.026 mg/L | 0.33 mg/L | 0.07 mg/L | 0.03 mg/L | 0.9 mg/L | > 50 mg/L | 30.6 mg/L | 3.85 mg/L | 0.013 mg/L | 0.017 mg/L
NIH45-46^G54F IgG (antibody, name in Kabat numbering, V domains shown) VH: QVRLSQSGGQMKKPGESMRLSCRASGYEFLNCPINWIRLAPGRRPEWMGWLKPRFGAVNYARKFQGRVTMTRDVYSDTAFLELRSLTSDDTAVYFCTRGKYCTARDYYNWDFEHWGRGAPVTVSS VL: EIVLTQSPATLSLSPGETAIISCRTSQSGSLAWYQQRPGQAPRLVIYSGSTRAAGIPDRFSGSRWGADYNLSISNLESGDFGVYYCQQYEFFGQGTKVQVDI | 0.08 mg/L | > 50 mg/L | 0.02 mg/L | 0.3 mg/L | > 50 mg/L | 0.198 mg/L | 0.004 mg/L | 0.03 mg/L | 0.173 mg/L | 1.65 mg/L | 0.022 mg/L | 0.41 mg/L | 0.12 mg/L | 0.04 mg/L | 1.12 mg/L | > 50 mg/L | > 50 mg/L | 4.62 mg/L | 0.011 mg/L | 0.011 mg/L
